Source: patent US20230357348A1 (AstraZeneca / MedImmune, published 2023)
Starred links: 1 amine or outer side, 2 acyl side, 3 side chain; linkers in the order of their positions; H or OH if unused. Non-standard residues stand in square brackets, D forms with d. Groups on a side chain read outwards from the residue. No end group written: not given here. *: point of attachment. C20 diacid = O=C(O)CCCCCCCCCCCCCCCCCCC(=O)*; C18 diacid = O=C(O)CCCCCCCCCCCCCCCCC(=O)*; γGlu = O=C(O)[C@H](CCC(=O)[*:2])N[*:1]; αMeF = C[C@](N)(Cc1ccccc1)C(=O)O; AEEA = NCCOCCOCC(=O)O; Aib = CC(C)(N)C(=O)O

What was measured:
[1] = molecular target: human GLP-1 receptor (hGLP-1R) (human, UniProt P43220 24-463); assay: cell-based or functional assay
[2] = molecular target: human glucagon receptor (hGCGR) (human, UniProt P47871 26-477); assay: cell-based or functional assay
Chain of human glucagon receptor (hGCGR) (P47871 26-477): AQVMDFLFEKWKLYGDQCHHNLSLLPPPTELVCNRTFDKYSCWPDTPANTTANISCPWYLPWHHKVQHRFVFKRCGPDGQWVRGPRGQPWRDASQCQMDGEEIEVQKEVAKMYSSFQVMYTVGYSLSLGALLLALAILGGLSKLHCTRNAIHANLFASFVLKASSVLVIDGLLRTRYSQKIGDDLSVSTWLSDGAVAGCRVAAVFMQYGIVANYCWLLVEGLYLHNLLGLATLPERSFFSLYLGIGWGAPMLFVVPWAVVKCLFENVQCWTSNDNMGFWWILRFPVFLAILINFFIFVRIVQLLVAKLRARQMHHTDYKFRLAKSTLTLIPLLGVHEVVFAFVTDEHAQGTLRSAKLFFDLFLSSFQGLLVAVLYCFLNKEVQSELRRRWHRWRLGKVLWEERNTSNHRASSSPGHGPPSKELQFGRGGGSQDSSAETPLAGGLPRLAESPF

| Binder | hGLP-1R EC50 (pM) [1] [pM] | hGluc-R EC50 (pM) [2] [pM] |
| --- | --- | --- |
| H[Aib]QGTFTSDVSK[αMeF]LDTK([AEEA-AEEA-γGlu-C18 diacid])RARDFVRWLL[Aib]TE-OH (N-terminus assumed; SMILES CC(C)C[C@H](NC(=O)[C@H](Cc1c[nH]c2ccccc12)NC(=O)[C@H](CCCNC(=N)N)NC(=O)[C@@H](NC(=O)[C@H](Cc1ccccc1)NC(=O)[C@H](CC(=O)O)NC(=O)[C@H](CCCNC(=N)N)NC(=O)[C@H](C)NC(=O)[C@H](CCCNC(=N)N)NC(=O)[C@H](CCCCNC(=O)COCCOCCNC(=O)COCCOCCNC(=O)CC[C@H](NC(=O)CCCCCCCCCCCCCCCCC(=O)O)C(=O)O)NC(=O)[C@@H](NC(=O)[C@H](CC(=O)O)NC(=O)[C@H](CC(C)C)NC(=O)[C@](C)(Cc1ccccc1)NC(=O)[C@H](CCCCN)NC(=O)[C@H](CO)NC(=O)[C@@H](NC(=O)[C@H](CC(=O)O)NC(=O)[C@H](CO)NC(=O)[C@@H](NC(=O)[C@H](Cc1ccccc1)NC(=O)[C@@H](NC(=O)CNC(=O)[C@H](CCC(N)=O)NC(=O)C(C)(C)NC(=O)[C@@H](N)Cc1c[nH]cn1)[C@@H](C)O)[C@@H](C)O)C(C)C)[C@@H](C)O)C(C)C)C(=O)N[C@@H](CC(C)C)C(=O)NC(C)(C)C(=O)N[C@H](C(=O)N[C@@H](CCC(=O)O)C(=O)O)[C@@H](C)O) [Peptide 491] | 73.6 | 232 |
| H[Aib]QGTFTSDVSK[αMeF]LDTK([AEEA-AEEA-γGlu-C20 diacid])RAQDFVRWLLR[Aib]K-NH2 (N-terminus assumed; SMILES CC(C)C[C@H](NC(=O)[C@H](Cc1c[nH]c2ccccc12)NC(=O)[C@H](CCCNC(=N)N)NC(=O)[C@@H](NC(=O)[C@H](Cc1ccccc1)NC(=O)[C@H](CC(=O)O)NC(=O)[C@H](CCC(N)=O)NC(=O)[C@H](C)NC(=O)[C@H](CCCNC(=N)N)NC(=O)[C@H](CCCCNC(=O)COCCOCCNC(=O)COCCOCCNC(=O)CC[C@H](NC(=O)CCCCCCCCCCCCCCCCCCC(=O)O)C(=O)O)NC(=O)[C@@H](NC(=O)[C@H](CC(=O)O)NC(=O)[C@H](CC(C)C)NC(=O)[C@](C)(Cc1ccccc1)NC(=O)[C@H](CCCCN)NC(=O)[C@H](CO)NC(=O)[C@@H](NC(=O)[C@H](CC(=O)O)NC(=O)[C@H](CO)NC(=O)[C@@H](NC(=O)[C@H](Cc1ccccc1)NC(=O)[C@@H](NC(=O)CNC(=O)[C@H](CCC(N)=O)NC(=O)C(C)(C)NC(=O)[C@@H](N)Cc1c[nH]cn1)[C@@H](C)O)[C@@H](C)O)C(C)C)[C@@H](C)O)C(C)C)C(=O)N[C@@H](CC(C)C)C(=O)N[C@@H](CCCNC(=N)N)C(=O)NC(C)(C)C(=O)N[C@@H](CCCCN)C(N)=O) [Peptide 496] | 64.9 | 482 |
| H[Aib]QGTFTSDVSK[αMeF]LDTK([AEEA-AEEA-γGlu-C20 diacid])RAQDFVRWLLR[Aib]A-OH (N-terminus assumed; SMILES CC(C)C[C@H](NC(=O)[C@H](Cc1c[nH]c2ccccc12)NC(=O)[C@H](CCCNC(=N)N)NC(=O)[C@@H](NC(=O)[C@H](Cc1ccccc1)NC(=O)[C@H](CC(=O)O)NC(=O)[C@H](CCC(N)=O)NC(=O)[C@H](C)NC(=O)[C@H](CCCNC(=N)N)NC(=O)[C@H](CCCCNC(=O)COCCOCCNC(=O)COCCOCCNC(=O)CC[C@H](NC(=O)CCCCCCCCCCCCCCCCCCC(=O)O)C(=O)O)NC(=O)[C@@H](NC(=O)[C@H](CC(=O)O)NC(=O)[C@H](CC(C)C)NC(=O)[C@](C)(Cc1ccccc1)NC(=O)[C@H](CCCCN)NC(=O)[C@H](CO)NC(=O)[C@@H](NC(=O)[C@H](CC(=O)O)NC(=O)[C@H](CO)NC(=O)[C@@H](NC(=O)[C@H](Cc1ccccc1)NC(=O)[C@@H](NC(=O)CNC(=O)[C@H](CCC(N)=O)NC(=O)C(C)(C)NC(=O)[C@@H](N)Cc1c[nH]cn1)[C@@H](C)O)[C@@H](C)O)C(C)C)[C@@H](C)O)C(C)C)C(=O)N[C@@H](CC(C)C)C(=O)N[C@@H](CCCNC(=N)N)C(=O)NC(C)(C)C(=O)N[C@@H](C)C(=O)O) [Peptide 498] | 156 | 170 |
| H[Aib]QGTFTSDVSK[αMeF]LDTK([AEEA-AEEA-γGlu-C18 diacid])RAQDFVRWLLR[Aib]K-NH2 (N-terminus assumed; SMILES CC(C)C[C@H](NC(=O)[C@H](Cc1c[nH]c2ccccc12)NC(=O)[C@H](CCCNC(=N)N)NC(=O)[C@@H](NC(=O)[C@H](Cc1ccccc1)NC(=O)[C@H](CC(=O)O)NC(=O)[C@H](CCC(N)=O)NC(=O)[C@H](C)NC(=O)[C@H](CCCNC(=N)N)NC(=O)[C@H](CCCCNC(=O)COCCOCCNC(=O)COCCOCCNC(=O)CC[C@H](NC(=O)CCCCCCCCCCCCCCCCC(=O)O)C(=O)O)NC(=O)[C@@H](NC(=O)[C@H](CC(=O)O)NC(=O)[C@H](CC(C)C)NC(=O)[C@](C)(Cc1ccccc1)NC(=O)[C@H](CCCCN)NC(=O)[C@H](CO)NC(=O)[C@@H](NC(=O)[C@H](CC(=O)O)NC(=O)[C@H](CO)NC(=O)[C@@H](NC(=O)[C@H](Cc1ccccc1)NC(=O)[C@@H](NC(=O)CNC(=O)[C@H](CCC(N)=O)NC(=O)C(C)(C)NC(=O)[C@@H](N)Cc1c[nH]cn1)[C@@H](C)O)[C@@H](C)O)C(C)C)[C@@H](C)O)C(C)C)C(=O)N[C@@H](CC(C)C)C(=O)N[C@@H](CCCNC(=N)N)C(=O)NC(C)(C)C(=O)N[C@@H](CCCCN)C(N)=O) [Peptide 495] | 23.2 | 380 |
| H[Aib]QGTFTSDVSK[αMeF]LDTK([AEEA-AEEA-γGlu-C18 diacid])RAQDFVRWLLR[Aib]A-OH (N-terminus assumed; SMILES CC(C)C[C@H](NC(=O)[C@H](Cc1c[nH]c2ccccc12)NC(=O)[C@H](CCCNC(=N)N)NC(=O)[C@@H](NC(=O)[C@H](Cc1ccccc1)NC(=O)[C@H](CC(=O)O)NC(=O)[C@H](CCC(N)=O)NC(=O)[C@H](C)NC(=O)[C@H](CCCNC(=N)N)NC(=O)[C@H](CCCCNC(=O)COCCOCCNC(=O)COCCOCCNC(=O)CC[C@H](NC(=O)CCCCCCCCCCCCCCCCC(=O)O)C(=O)O)NC(=O)[C@@H](NC(=O)[C@H](CC(=O)O)NC(=O)[C@H](CC(C)C)NC(=O)[C@](C)(Cc1ccccc1)NC(=O)[C@H](CCCCN)NC(=O)[C@H](CO)NC(=O)[C@@H](NC(=O)[C@H](CC(=O)O)NC(=O)[C@H](CO)NC(=O)[C@@H](NC(=O)[C@H](Cc1ccccc1)NC(=O)[C@@H](NC(=O)CNC(=O)[C@H](CCC(N)=O)NC(=O)C(C)(C)NC(=O)[C@@H](N)Cc1c[nH]cn1)[C@@H](C)O)[C@@H](C)O)C(C)C)[C@@H](C)O)C(C)C)C(=O)N[C@@H](CC(C)C)C(=O)N[C@@H](CCCNC(=N)N)C(=O)NC(C)(C)C(=O)N[C@@H](C)C(=O)O) [Peptide 497] | 37.4 | 118 |

Further lines, results first:

| hGLP-1R EC50 (pM) [1] [pM] | hGluc-R EC50 (pM) [2] [pM] | Binder |
| --- | --- | --- |
| 212 | 374 | H[Aib]QGTFTSDVSK[αMeF]LDTK([AEEA-AEEA-γGlu-C20 diacid])RARDFVRWLL[Aib]TE-OH (N-terminus assumed; SMILES CC(C)C[C@H](NC(=O)[C@H](Cc1c[nH]c2ccccc12)NC(=O)[C@H](CCCNC(=N)N)NC(=O)[C@@H](NC(=O)[C@H](Cc1ccccc1)NC(=O)[C@H](CC(=O)O)NC(=O)[C@H](CCCNC(=N)N)NC(=O)[C@H](C)NC(=O)[C@H](CCCNC(=N)N)NC(=O)[C@H](CCCCNC(=O)COCCOCCNC(=O)COCCOCCNC(=O)CC[C@H](NC(=O)CCCCCCCCCCCCCCCCCCC(=O)O)C(=O)O)NC(=O)[C@@H](NC(=O)[C@H](CC(=O)O)NC(=O)[C@H](CC(C)C)NC(=O)[C@](C)(Cc1ccccc1)NC(=O)[C@H](CCCCN)NC(=O)[C@H](CO)NC(=O)[C@@H](NC(=O)[C@H](CC(=O)O)NC(=O)[C@H](CO)NC(=O)[C@@H](NC(=O)[C@H](Cc1ccccc1)NC(=O)[C@@H](NC(=O)CNC(=O)[C@H](CCC(N)=O)NC(=O)C(C)(C)NC(=O)[C@@H](N)Cc1c[nH]cn1)[C@@H](C)O)[C@@H](C)O)C(C)C)[C@@H](C)O)C(C)C)C(=O)N[C@@H](CC(C)C)C(=O)NC(C)(C)C(=O)N[C@H](C(=O)N[C@@H](CCC(=O)O)C(=O)O)[C@@H](C)O) [Peptide 492] |
| 23.4 | 166 | H[Aib]QGTFTSDVSK[αMeF]LDTK([AEEA-AEEA-γGlu-C18 diacid])RAQDFVRWLLR[Aib]K-OH (N-terminus assumed; SMILES CC(C)C[C@H](NC(=O)[C@H](Cc1c[nH]c2ccccc12)NC(=O)[C@H](CCCNC(=N)N)NC(=O)[C@@H](NC(=O)[C@H](Cc1ccccc1)NC(=O)[C@H](CC(=O)O)NC(=O)[C@H](CCC(N)=O)NC(=O)[C@H](C)NC(=O)[C@H](CCCNC(=N)N)NC(=O)[C@H](CCCCNC(=O)COCCOCCNC(=O)COCCOCCNC(=O)CC[C@H](NC(=O)CCCCCCCCCCCCCCCCC(=O)O)C(=O)O)NC(=O)[C@@H](NC(=O)[C@H](CC(=O)O)NC(=O)[C@H](CC(C)C)NC(=O)[C@](C)(Cc1ccccc1)NC(=O)[C@H](CCCCN)NC(=O)[C@H](CO)NC(=O)[C@@H](NC(=O)[C@H](CC(=O)O)NC(=O)[C@H](CO)NC(=O)[C@@H](NC(=O)[C@H](Cc1ccccc1)NC(=O)[C@@H](NC(=O)CNC(=O)[C@H](CCC(N)=O)NC(=O)C(C)(C)NC(=O)[C@@H](N)Cc1c[nH]cn1)[C@@H](C)O)[C@@H](C)O)C(C)C)[C@@H](C)O)C(C)C)C(=O)N[C@@H](CC(C)C)C(=O)N[C@@H](CCCNC(=N)N)C(=O)NC(C)(C)C(=O)N[C@@H](CCCCN)C(=O)O) [Peptide 493] |
| 98.7 | 212 | H[Aib]QGTFTSDVSK[αMeF]LDTK([AEEA-AEEA-γGlu-C20 diacid])RAQDFVRWLLR[Aib]K-OH [Peptide 494] |
